This is an account of results in patent publication US20210332115A1 (Sanofi, published 2021).

Experiment [1] concerns the target T1, Homo sapiens factor Bb protein (human, UniProt P00751 260-764).
T1 construct: Bought from CompTech (A155); also called complement factor Bb; human factor Bb
Description: BLI Octet, biotinylated antibody on SA biosensors. How it is done:
Briefly, biotinylated antibodies were loaded onto SA Biosensors equilibrated in PBS, 0.1% BSA, 0.02% Tween-20 (assay buffer). After a 60 second baseline in assay buffer, antibodies were loaded onto the probes for 180 seconds, followed by another 60 second baseline. Association to human (Comptech) or cynomolgus monkey factor Bb (purified in-house) was measured for 300 seconds, followed by a 300 second dissociation. Kinetic parameters were calculated by the Octet Analysis software using a 1:1 binding model.
To determine whether the modification of the Fc portion of the antibodies affected affinity and species cross-reactivity, VH4/VK6-IgG4v2 and VH6/VK7-IgG4v2 were tested alongside their parental antibodies, VH4/VK6 and VH6/VK7, respectively, for their ability to bind human and cynomolgus monkey factor Bb by BLI. VH4/VK6-IgG4v2 and VH6/VK7-IgG4v2 contain mutations in the Fc region that increase the affinity for an Fc receptor.
For orientation: BLI is a label-free optical method that tracks binding on a fibre tip over time.

For experiment [2], the target named is T1, Homo sapiens factor Bb protein. The experiment in a line: SPR single cycle kinetics, antibody on Protein A chip, antigen analyte. As for the experimental part:
(§1) The ability of VH4/VK6 and VH6/VK7 to bind to zymogen factor B and factor Bb from both human and cynomolgus monkey was determined by surface plasmon resonance using a Biacore T200. Human factor B and factor Bb were purchased from Comptech and cynomolgus monkey factor B and factor Bb were purified in-house. Briefly, the monoclonal antibodies were captured on a Biacore Series S Protein A chip in HBSP+ (10 mM HEPES, 150 mM NaCl, 0.05% P20 pH 7.4) at a flow rate of 30 μL/min. A five-point concentration series of each analyte was tested for binding using single cycle kinetics with a contact time of 180 seconds per concentration followed by a 600 sec dissociation at 25° C. and a flow rate of […]. Both human and cynomolgus monkey factor B started at a concentration of 500 nM followed by 2-fold dilutions, while human and cynomolgus monkey factor Bb started at concentrations of 30 nM and 150 nM, respectively, followed by 2-fold dilutions. Data were analyzed using the Biacore evaluation software using a 1:1 binding model. […] Binding to human or cynomolgus monkey factor B was barely detectable and the small signal that was observed was dominated by non-specific binding.

Experiment [3] has the same target. The experiment in a line: SPR single cycle kinetics; against cynomolgus monkey factor Bb. How it is done: as §1

T1 sequence (P00751 260-764 limits assumed): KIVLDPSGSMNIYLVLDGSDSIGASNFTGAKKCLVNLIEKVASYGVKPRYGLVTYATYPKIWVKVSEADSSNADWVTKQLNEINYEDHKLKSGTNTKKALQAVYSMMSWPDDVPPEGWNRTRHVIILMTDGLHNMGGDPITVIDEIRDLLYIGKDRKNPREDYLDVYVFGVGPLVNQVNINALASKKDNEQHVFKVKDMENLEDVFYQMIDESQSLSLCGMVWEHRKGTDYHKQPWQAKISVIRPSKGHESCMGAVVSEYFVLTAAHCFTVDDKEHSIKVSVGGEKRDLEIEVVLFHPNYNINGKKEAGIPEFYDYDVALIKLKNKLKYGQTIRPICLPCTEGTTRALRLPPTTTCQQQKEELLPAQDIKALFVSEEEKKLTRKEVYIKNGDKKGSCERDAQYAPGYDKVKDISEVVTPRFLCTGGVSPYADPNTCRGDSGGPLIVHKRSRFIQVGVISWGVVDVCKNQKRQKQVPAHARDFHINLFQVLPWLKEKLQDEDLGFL

B1: VH4/Vκ6-IgG4v2 (antibody)
heavy: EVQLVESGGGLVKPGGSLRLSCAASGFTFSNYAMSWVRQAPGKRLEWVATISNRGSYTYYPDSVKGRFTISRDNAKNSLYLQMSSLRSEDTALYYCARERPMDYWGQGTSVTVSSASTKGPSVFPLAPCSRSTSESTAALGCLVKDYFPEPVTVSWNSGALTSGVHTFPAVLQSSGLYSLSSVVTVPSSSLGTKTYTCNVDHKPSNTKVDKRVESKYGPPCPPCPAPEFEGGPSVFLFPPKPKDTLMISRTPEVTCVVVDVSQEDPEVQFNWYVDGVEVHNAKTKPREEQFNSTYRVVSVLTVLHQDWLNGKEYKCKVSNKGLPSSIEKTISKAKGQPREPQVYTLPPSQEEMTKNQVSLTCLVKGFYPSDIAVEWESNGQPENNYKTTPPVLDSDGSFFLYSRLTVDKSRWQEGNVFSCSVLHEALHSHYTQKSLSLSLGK
light: DIVMTQSPSFLSASVGDRVTITCKASQDVGTAVAWYQQKPGKAPKLLIYWASTRHTGVPDRFTGSGSGTDFTLTISSLQSEDFAVYFCHQHSSNPLTFGQGTKLEIKRTVAAPSVFIFPPSDEQLKSGTASVVCLLNNFYPREAKVQWKVDNALQSGNSQESVTEQDSKDSTYSLSSTLTLSKADYEKHKVYACEVTHQGLSSPVTKSFNRGEC
notes: also called VH4/VK6-IgG4v2
On to B1, for which binding in experiment [1] was put at a Kd of 1.6 nM. In experiment [2], binding was put at a Kd of 2.26 nM; the koff (as a rule, the rate constant with which the complex falls apart) amounted to 0.000925 s⁻¹; the on-rate (kon) (commonly the rate constant with which the complex forms) is 410000 M⁻¹ s⁻¹. In experiment [3], the “fold higher affinity for human factor Bb compared to cynomolgus monkey factor Bb” value is around 10 fold.
